Reference: patent CN113797333A (SHANGHAI JUNSHI BIOSCIENCES CO LTD; JUNMENG BIOSCIENCES CO …, dated 2021)
Values joined by “and” are separate entries in the source; they are usually repeats but may differ in a detail not shown here. Equal entries are not always repeated.

Target: 全序列COVID-19刺突蛋白 (on COVID-19 pseudovirus) (COVID-19 (SARS-CoV-2), UniProt P0DTC2 14-1273)
Test: cell-based or functional assay

B1: 人源化单克隆抗体CB6 (antibody, V domains shown)
VH: EVQLVESGGGLVQPGGSLRLSCAASGFTVSSNYMSWVRQAPGKGLEWVSVIYSGGSTFYADSVKGRFTISRDNSMNTLFLQMNSLRAEDTAVYYCARVLPMYGDYLDYWGQGTLVTVSS
VL: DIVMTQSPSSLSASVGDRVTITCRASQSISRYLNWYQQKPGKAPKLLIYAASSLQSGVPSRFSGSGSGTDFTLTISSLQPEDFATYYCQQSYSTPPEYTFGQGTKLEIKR
Q: How did the “IC50 of inhibition of COVID-19 pseudovirus infection of Huh-7 cells (luciferase)” value turn out when B1 was run?
A: The value was 0.183 nM and 0.0275 μg/ml.
